Data taken from IntAct's records for PubMed 23064147.

B1: Spindle assembly abnormal protein 5 (Caenorhabditis elegans), Q20010 (parent)
chain: MNNYDDLPCSIYFKKPTVQEFVDQPRVFEDSEVPAFQEVLQLPQERTKPPVPSTQPIVAAVEVAKKKSCLSAPKPRKEPPSHPALRQKTVAFGKTVNVSQTVEGTSRNSKKVLASTMSAQNTTTTEEQAAENWRDAMKTELQTIRTEIQEETARRQEELNAQNLVKMQELMSNFFQKITIPKQQAIEPVEKDKENFHESPRQSRQQKPASKIASAREVIKRDGVIPPEALTIIEQRLRSDPMFRQQIDNVLADAECDANRAAYSPPPPMSEVRYGSGVNPALMRETLTVERSIRYDNGLASIDSRQWTNERRDNRAPDSYRTYEPDQPCHSLYQKGQSISYYPSEAAGKTTARNNRTGYYVEDSSDHEEDVVVNKRGQNYHEQAVPETPAERERRIREKYARRK
partner: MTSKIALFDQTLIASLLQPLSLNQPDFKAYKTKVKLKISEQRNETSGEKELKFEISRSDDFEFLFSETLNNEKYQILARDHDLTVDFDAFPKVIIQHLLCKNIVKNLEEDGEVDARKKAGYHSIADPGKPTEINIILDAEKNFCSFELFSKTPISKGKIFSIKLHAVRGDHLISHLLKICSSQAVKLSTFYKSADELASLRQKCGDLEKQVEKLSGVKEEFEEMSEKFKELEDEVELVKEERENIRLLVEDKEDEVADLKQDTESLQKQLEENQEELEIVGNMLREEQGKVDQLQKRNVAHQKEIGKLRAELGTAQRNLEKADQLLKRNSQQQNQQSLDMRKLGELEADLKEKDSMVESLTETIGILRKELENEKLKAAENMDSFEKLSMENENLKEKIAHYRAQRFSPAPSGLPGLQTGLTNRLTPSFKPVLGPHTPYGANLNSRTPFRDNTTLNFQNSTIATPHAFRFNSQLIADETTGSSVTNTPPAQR
B2: Spindle assembly abnormal protein 6 (Caenorhabditis elegans), O62479 (parent)
chain: B1 partner
partner: B1 chain

Variants of: B1
Settings: with sas6_caeel sas-6, O62479

| Variant | effect of a mutation on the interaction |
| --- | --- |
| Y400A | decreasing interaction |

Variants of: B1
Settings: with sas6_caeel sas-6, O62479
Remark: another data set of the same source

| Variant | effect of a mutation on the interaction |
| --- | --- |
| Y400A | disrupting interaction |

Variants of: B1
Settings: with sas6_caeel sas-6, O62479
Remark: another data set of the same source

| Variant | effect of a mutation on the interaction |
| --- | --- |
| R397C | decreasing interaction |

Variants of: B1
Settings: with sas6_caeel sas-6, O62479
Remark: another data set of the same source

| Variant | effect of a mutation on the interaction |
| --- | --- |
| R397C | disrupting interaction |

Variants of: B1
Settings: with sas6_caeel sas-6, O62479
Remark: another data set of the same source

| Variant | effect of a mutation on the interaction |
| --- | --- |
| R403A | decreasing interaction |

Variants of: B1
Settings: with sas6_caeel sas-6, O62479
Remark: another data set of the same source

| Variant | effect of a mutation on the interaction |
| --- | --- |
| R403A | disrupting interaction |

Variants of: B1
Settings: with sas6_caeel sas-6, O62479
Remark: another data set of the same source

| Variant | effect of a mutation on the interaction |
| --- | --- |
| I396A | decreasing interaction |

Variants of: B1
Settings: with sas6_caeel sas-6, O62479
Remark: another data set of the same source

| Variant | effect of a mutation on the interaction |
| --- | --- |
| I396A | disrupting interaction |

Variants of: B2
Settings: with sas5_caeel sas-5, Q20010

| Variant | effect of a mutation on the interaction |
| --- | --- |
| E276A | decreasing interaction |
| E278A | decreasing interaction |
| E275A | decreasing interaction |

Variants of: B2
Settings: with sas5_caeel sas-5, Q20010
Remark: another data set of the same source

| Variant | effect of a mutation on the interaction |
| --- | --- |
| E276A | disrupting interaction |
| E278A | disrupting interaction |
| E275A | disrupting interaction |

Variants of: B2
Settings: with sas5_caeel sas-5, Q20010
Remark: another data set of the same source

| Variant | effect of a mutation on the interaction |
| --- | --- |
| M283A | decreasing interaction |
| I279A | decreasing interaction |

Variants of: B2
Settings: with sas5_caeel sas-5, Q20010
Remark: another data set of the same source

| Variant | effect of a mutation on the interaction |
| --- | --- |
| M283A | disrupting interaction |
| I279A | disrupting interaction |

Variants of: B2
Settings: with sas5_caeel sas-5, Q20010
Remark: another data set of the same source

| Variant | effect of a mutation on the interaction |
| --- | --- |
| E287A | decreasing interaction |

Variants of: B2
Settings: with sas5_caeel sas-5, Q20010
Remark: another data set of the same source

| Variant | effect of a mutation on the interaction |
| --- | --- |
| E286A | decreasing interaction |
